Source: article doi:10.1101/2020.08.16.252742

How the values were obtained:
[1] = molecular target: HIV-1 JR-FL Env glycoprotein (unlabelled) on HIV-1 Gag-GFP pseudovirions (HIV-1 JR-FL); assay: single-molecule photobleaching
[2] = molecular target: HIV-1 NL4-3 Env glycoprotein (unlabelled) on HIV-1 Gag-GFP pseudovirions (HIV-1 NL4-3); assay: single-molecule photobleaching

Substance | stoichiometry N [1] [Envs] | stoichiometry N [2] [Envs]
HIV-1 JR-FL Env glycoprotein (unlabelled) on HIV-1 Gag-GFP pseudovirions (complex) | > 2 | –
HIV-1 NL4-3 Env glycoprotein (unlabelled) on HIV-1 Gag-GFP pseudovirions (complex) | – | > 3
